Legend:
human cMet on cells [1] = molecular target: T1, human cMet on cells (human, UniProt P08581 25-1390); test: FACS competition on EBC-1 cells, HGF-His as the ligand detected, VHH-Fc from 100 nM
T1 construct: whole, on cells; Cell lines: CHO-S-cMet, CHOK1-hucMet, EBC-1, MKN45, NCI-H1975; the cell line is named under assay; also called CHO-S-cMet; CHOK1-hucMet

[2] = molecular target: Human EGFR antigen (SPR of Example 4.4) (human, UniProt P00533 25-645); test: SPR method I, antigen on CM5 chip, VHH-His injected, 1:1 model
[3] = molecular target: Cyno EGFR antigen (SPR of Example 4.4) (cynomolgus monkey, UniProt A0A2K5WK39 25-645); test: as above
human EGFR on cells [4] = molecular target: T2, human EGFR on cells (human, UniProt P00533 25-1210); test: FACS, VHH-His on MDA-MB-468 cells
T2 construct: whole, on cells; the cell line is named under assay; also called CHO-S-EGFR; CHOK1-huEGFR

human EGFR on cells [5] = molecular target: T2, human EGFR on cells; test: FACS, VHH-His on CHOK1-huEGFR cells
human cMet on cells [6] = molecular target: T1, human cMet on cells; test: FACS, VHH-His on EBC-1 cells
[7] = molecular target: T3, Cynomolgus monkey cMet antigen (cynomolgus monkey, UniProt A0A2K5UM36 25-932); test: SPR method I, antigen on CM5 chip, VHH-His injected, 1:1 model
T3 construct: treated as one molecule; also called cynomolgus monkey cMet-His antigen; Cyno cMet
T3 sequence (A0A2K5UM36 entry or part of it limits assumed, form in doubt): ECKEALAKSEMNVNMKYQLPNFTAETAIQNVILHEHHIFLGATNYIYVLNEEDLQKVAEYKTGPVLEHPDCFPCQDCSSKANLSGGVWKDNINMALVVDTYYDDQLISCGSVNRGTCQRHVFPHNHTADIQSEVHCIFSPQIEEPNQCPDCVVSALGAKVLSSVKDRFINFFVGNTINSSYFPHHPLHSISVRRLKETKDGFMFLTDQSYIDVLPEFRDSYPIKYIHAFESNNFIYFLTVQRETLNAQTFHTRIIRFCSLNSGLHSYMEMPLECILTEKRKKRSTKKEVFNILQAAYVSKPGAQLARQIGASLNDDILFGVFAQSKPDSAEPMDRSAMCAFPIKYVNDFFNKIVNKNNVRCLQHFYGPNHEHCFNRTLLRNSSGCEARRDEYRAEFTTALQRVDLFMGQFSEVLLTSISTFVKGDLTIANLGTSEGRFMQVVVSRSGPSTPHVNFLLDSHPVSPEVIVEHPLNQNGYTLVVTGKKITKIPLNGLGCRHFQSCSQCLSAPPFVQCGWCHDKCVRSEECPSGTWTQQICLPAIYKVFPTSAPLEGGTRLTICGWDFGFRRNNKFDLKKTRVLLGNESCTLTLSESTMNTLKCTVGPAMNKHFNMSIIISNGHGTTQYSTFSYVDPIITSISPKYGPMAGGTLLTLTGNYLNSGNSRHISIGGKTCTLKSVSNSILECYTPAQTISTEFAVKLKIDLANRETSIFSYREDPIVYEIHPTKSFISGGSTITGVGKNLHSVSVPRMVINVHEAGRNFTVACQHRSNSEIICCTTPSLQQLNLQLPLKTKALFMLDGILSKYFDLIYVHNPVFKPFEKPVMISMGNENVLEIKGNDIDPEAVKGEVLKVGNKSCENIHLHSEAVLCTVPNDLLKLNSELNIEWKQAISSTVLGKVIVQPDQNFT

Human cMet antigen [8] = molecular target: T4, Human cMet antigen (human, UniProt P08581 25-932); test: as above
T4 construct: treated as one molecule; also called Human cMet-His antigen
T4 sequence (P08581 25-932): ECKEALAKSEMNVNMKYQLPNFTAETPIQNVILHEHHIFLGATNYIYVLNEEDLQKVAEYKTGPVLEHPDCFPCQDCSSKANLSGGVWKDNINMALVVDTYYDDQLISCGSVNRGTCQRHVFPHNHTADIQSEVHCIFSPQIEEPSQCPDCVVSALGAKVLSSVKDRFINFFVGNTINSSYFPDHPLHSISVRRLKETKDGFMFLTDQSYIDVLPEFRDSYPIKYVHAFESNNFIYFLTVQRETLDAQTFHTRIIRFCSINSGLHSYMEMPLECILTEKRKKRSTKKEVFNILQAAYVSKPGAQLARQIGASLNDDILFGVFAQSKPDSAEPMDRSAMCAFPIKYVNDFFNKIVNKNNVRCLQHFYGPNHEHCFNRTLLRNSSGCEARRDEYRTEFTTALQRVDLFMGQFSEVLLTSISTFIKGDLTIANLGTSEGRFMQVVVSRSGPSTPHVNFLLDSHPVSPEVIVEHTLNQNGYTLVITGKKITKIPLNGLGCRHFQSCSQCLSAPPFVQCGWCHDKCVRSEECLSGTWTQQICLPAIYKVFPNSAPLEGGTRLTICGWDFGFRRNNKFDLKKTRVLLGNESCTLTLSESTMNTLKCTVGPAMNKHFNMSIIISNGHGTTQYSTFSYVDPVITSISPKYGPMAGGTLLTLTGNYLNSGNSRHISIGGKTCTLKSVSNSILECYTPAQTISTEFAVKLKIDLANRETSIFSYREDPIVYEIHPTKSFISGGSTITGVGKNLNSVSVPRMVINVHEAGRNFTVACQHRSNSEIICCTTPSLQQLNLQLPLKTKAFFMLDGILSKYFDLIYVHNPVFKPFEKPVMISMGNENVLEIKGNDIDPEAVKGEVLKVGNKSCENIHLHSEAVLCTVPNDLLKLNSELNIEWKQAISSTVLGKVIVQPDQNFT

human cMet on cells [9] = molecular target: T1, human cMet on cells; test: FACS, VHH-His on MKN45 cells
human cMet on cells [10] = molecular target: T1, human cMet on cells; test: FACS, VHH-His on MKN45 cells; remark: listed apart in the source
human cMet on cells [11] = molecular target: T1, human cMet on cells; test: FACS, VHH-His on CHOK1-hucMet cells
[12] = molecular target: T3, Cynomolgus monkey cMet antigen; test: SPR method II, antibody captured on Protein A chip, antigen injected, 1:1 model
Human cMet antigen [13] = molecular target: T4, Human cMet antigen; test: as above

T1 sequence (P08581 25-1390): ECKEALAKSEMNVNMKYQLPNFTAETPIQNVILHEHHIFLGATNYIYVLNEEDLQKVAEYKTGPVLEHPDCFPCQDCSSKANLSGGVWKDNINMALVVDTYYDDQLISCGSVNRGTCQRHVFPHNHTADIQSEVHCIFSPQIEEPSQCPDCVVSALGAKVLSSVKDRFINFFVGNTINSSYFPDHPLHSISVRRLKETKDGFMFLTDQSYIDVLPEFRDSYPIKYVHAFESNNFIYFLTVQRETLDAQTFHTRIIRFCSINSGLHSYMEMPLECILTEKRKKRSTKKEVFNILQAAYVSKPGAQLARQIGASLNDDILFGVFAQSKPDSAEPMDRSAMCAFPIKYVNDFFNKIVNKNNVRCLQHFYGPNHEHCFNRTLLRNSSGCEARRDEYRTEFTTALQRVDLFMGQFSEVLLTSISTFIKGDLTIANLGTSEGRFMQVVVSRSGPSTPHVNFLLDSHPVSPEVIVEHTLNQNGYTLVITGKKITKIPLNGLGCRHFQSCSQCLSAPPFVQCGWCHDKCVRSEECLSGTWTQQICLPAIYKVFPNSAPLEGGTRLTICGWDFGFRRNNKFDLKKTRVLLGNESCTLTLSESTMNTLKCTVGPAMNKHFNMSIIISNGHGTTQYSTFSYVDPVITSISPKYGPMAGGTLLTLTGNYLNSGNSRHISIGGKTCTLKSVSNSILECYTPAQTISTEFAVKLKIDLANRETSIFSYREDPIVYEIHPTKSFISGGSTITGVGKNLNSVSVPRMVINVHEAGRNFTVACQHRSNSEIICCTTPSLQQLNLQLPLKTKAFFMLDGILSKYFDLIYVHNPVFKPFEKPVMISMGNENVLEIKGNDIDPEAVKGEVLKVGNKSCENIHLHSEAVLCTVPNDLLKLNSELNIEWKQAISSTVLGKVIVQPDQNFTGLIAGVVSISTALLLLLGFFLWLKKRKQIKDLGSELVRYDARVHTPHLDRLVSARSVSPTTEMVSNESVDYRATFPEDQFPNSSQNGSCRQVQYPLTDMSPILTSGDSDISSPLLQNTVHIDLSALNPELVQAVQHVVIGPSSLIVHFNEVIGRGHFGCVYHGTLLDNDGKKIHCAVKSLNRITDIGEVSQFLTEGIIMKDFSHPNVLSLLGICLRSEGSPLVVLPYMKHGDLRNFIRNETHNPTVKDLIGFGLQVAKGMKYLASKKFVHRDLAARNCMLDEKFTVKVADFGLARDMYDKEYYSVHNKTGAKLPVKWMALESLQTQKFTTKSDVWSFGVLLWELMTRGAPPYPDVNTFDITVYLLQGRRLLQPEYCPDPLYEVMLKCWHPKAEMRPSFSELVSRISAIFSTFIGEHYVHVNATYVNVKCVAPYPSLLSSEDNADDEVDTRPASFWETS

B1: V-n9A10 anti-cMet VHH-Fc (Fc fusion, not shown: a dimerising Fc or GST)
chain: QVQLVESGGGLVQPGGSLRLSCEASGFTFSSYVMSWYRQAPGKERELVALISSTTGSSTKYGDSVKGRFTISRDNAKNTVYLQMNSLKPEDTAVYYCNAMIGWNNHWGQGTHVTVSS
MFI value at the highest concentration (human cMet on cells [1]): 77200 MFI | ratio of MFI value at the highest concentration to that at the lowest concentration (human cMet on cells [1]): 1.14

B2: V-n5B10 anti-EGFR VHH-His (VHH, not shown: small tags and cut ends)
VHH: AVQLVDSGGGLVQPGGSLRLDCSASGTIIGTYTMAWYRQAPGKQREMVAIITPGGGSHHADSVKGRFTISRDNGKSTVYLQMSSLKFEDTAVYYCNAKARWGTTEYWGQGTQVTVSS
notes: Monovalent parent VHH
Kd [2]: 23.2 nM | koff [2]: 0.00536 s⁻¹ | kon [2]: 232000 M⁻¹ s⁻¹ | Kd [3]: 7.36 nM | koff [3]: 0.00384 s⁻¹ | kon [3]: 522000 M⁻¹ s⁻¹ | EC50 (human EGFR on cells [4]): 15 nM | Maximum MFI value (human EGFR on cells [4]): 111000 MFI

B3: zn9B8.m2 (VHH, not shown: small tags and cut ends)
VHH: EVQLLESGGGLVQPGGSLRLSCAASGLTFSYYAMAWFRQAPGKEREFVAAINWNGGNTYNTDSVKGRFTISRDNSKNTVYLQMNSLTPEDTAVYYCAVRYNSASYLVARSSDYNYWGQGTLVTVSS
notes: Humanized anti-EGFR VHH-His
EC50 (human EGFR on cells [5]): 3.94 nM | Maximum MFI value (human EGFR on cells [5]): 84300 MFI | EC50 (human EGFR on cells [4]): 2.49 nM | Maximum MFI value (human EGFR on cells [4]): 95800 MFI

B4: pzn9B8.m2.m12 (VHH, not shown: small tags and cut ends)
VHH: EVQLLESGGGLVQPGGSLRLSCAASGLTFSYYAMAWFRQAPGKEREFVAAINWNAGNTYNTDSVKGRFTISRDNSKNTVYLQMNSLTPEDTAVYYCAVRYNAASYLVARSSDYNYWGQGTLVTVSS
notes: Humanized + PTM-removal anti-EGFR VHH-His
EC50 (human EGFR on cells [5]): 4.96 nM | Maximum MFI value (human EGFR on cells [5]): 85700 MFI

B5: pzn9B8.m2.m11 (VHH, not shown: small tags and cut ends)
VHH: EVQLLESGGGLVQPGGSLRLSCAASGLTFSYYAMAWFRQAPGKEREFVAAINWNQGNTYNTDSVKGRFTISRDNSKNTVYLQMNSLTPEDTAVYYCAVRYNQASYLVARSSDYNYWGQGTLVTVSS
notes: Humanized + PTM-removal anti-EGFR VHH-His; also called hu9B8
EC50 (human EGFR on cells [5]): 3.39 nM | Maximum MFI value (human EGFR on cells [5]): 80100 MFI

B6: VHH10 (VHH, not shown: small tags and cut ends)
VHH: QSQLVESGGGLVKPGGSLRLSCVASGFTISRSIMSWYRQAPGKERDWVASIGSAGNTNYVDSVKGRFTISRDNAKNSLYLQMNSLRAEDTAVYYCKTTLAVSFSEYWGQGTLVTVSS
notes: Humanized 9A2 anti-cMet VHH-His; also called hu9A2
EC50 (human cMet on cells [6]): 1.63 nM | Maximum MFI value (human cMet on cells [6]): 233000 MFI

B7: V-n9A2 anti-cMet VHH-His (VHH, not shown: small tags and cut ends)
VHH: QSQLAESGGGLVQSGGSLGLSCVASGFTISRSIMSWYRQPPGKERDWVASIGSAGNTNYVDSVKGRFTISRDVAKNTVYLQMNSLKPEDTAVYYCKTTLAVSFSEYWGQGTQVTVSS
notes: Monovalent parent VHH
Kd [7]: 70.3 nM | koff [7]: 0.0072 s⁻¹ | kon [7]: 102000 M⁻¹ s⁻¹ | Kd (Human cMet antigen [8]): 16 nM | koff (Human cMet antigen [8]): 0.0029 s⁻¹ | kon (Human cMet antigen [8]): 181000 M⁻¹ s⁻¹ | EC50 (human cMet on cells [6]): 1.56 nM | Maximum MFI value (human cMet on cells [6]): 291000 MFI

B8: VHH8 (VHH, not shown: small tags and cut ends)
VHH: ESQLLESGGGLVQPGGSLRLSCVASGFTISRSIMSWYRQAPGKERDWVASIGSAGNTNYVDSVKGRFTISRDNSKNTVYLQMNSLRAEDTAVYYCKTTLAVSFSEYWGQGTLVTVSS
notes: Humanized 9A2 anti-cMet VHH-His
EC50 (human cMet on cells [6]): 2.5 nM | Maximum MFI value (human cMet on cells [6]): 143000 MFI

B9: VHH9 (VHH, not shown: small tags and cut ends)
VHH: ESQLLESGGGLVQPGGSLRLSCVASGFTISRSIMSWYRQAPGKERDWVASIGSAGNTNYVDSVKGRFTISRDVSKNTLYLQMNSLRAEDTAVYYCKTTLAVSFSEYWGQGTLVTVSS
notes: as for B8
EC50 (human cMet on cells [6]): 1.63 nM | Maximum MFI value (human cMet on cells [6]): 194000 MFI

B10: pn7A12.N32X.m1 (VHH, not shown: small tags and cut ends)
VHH: EVQLVESGGGLVQAGGSLRLSCVASGNIFSSYHMGWFRQAPGKQREFIAYITTREITNYADSVKGRFTISRDNTKNTVYLQMNVLKPEDTAVYYCIADQSREIRRSWGQGTQVTVSS
notes: PTM-removal anti-cMet VHH-His
EC50 (human cMet on cells [9]): 5.1 nM | Maximum MFI value (human cMet on cells [9]): 40400 MFI

B11: pn7A12.N32X.m4 (VHH, not shown: small tags and cut ends)
VHH: EVQLVESGGGLVQAGGSLRLSCVASGNIFSSFHMGWFRQAPGKQREFIAYITTREITNYADSVKGRFTISRDNTKNTVYLQMNVLKPEDTAVYYCIADQSREIRRSWGQGTQVTVSS
notes: PTM-removal anti-cMet VHH-His
EC50 (human cMet on cells [9]): 4.96 nM | Maximum MFI value (human cMet on cells [9]): 38000 MFI

B12: 7A12-M4 (VHH, not shown: small tags and cut ends)
VHH: EVQLVESGGGLIQAGGSLRLSCTASGNIFSSNHMGWFRQAPGKQREFIAYITTREITNYADSVKGRFTISRDNSKNTVYLQMNNLRSEDTAVYYCIADQSREIRRSWGQGTLVTVSS
notes: Humanized anti-cMet VHH-His
EC50 (human cMet on cells [10]): 4.11 nM | Maximum MFI value (human cMet on cells [10]): 44700 MFI

B13: pn7A12.N32X.m6 (VHH, not shown: small tags and cut ends)
VHH: EVQLVESGGGLVQAGGSLRLSCVASGNIFSSDHMGWFRQAPGKQREFIAYITTREITNYADSVKGRFTISRDNTKNTVYLQMNVLKPEDTAVYYCIADQSREIRRSWGQGTQVTVSS
notes: PTM-removal anti-cMet VHH-His
EC50 (human cMet on cells [9]): 4.45 nM | Maximum MFI value (human cMet on cells [9]): 44700 MFI

B14: pn7A12.N32X.m3 (VHH, not shown: small tags and cut ends)
VHH: EVQLVESGGGLVQAGGSLRLSCVASGNIFSSHHMGWFRQAPGKQREFIAYITTREITNYADSVKGRFTISRDNTKNTVYLQMNVLKPEDTAVYYCIADQSREIRRSWGQGTQVTVSS
notes: PTM-removal anti-cMet VHH-His
EC50 (human cMet on cells [9]): 4.16 nM | Maximum MFI value (human cMet on cells [9]): 49600 MFI

B15: dpzn7A12m4.m1_1 (VHH, not shown: small tags and cut ends)
VHH: EVQLVESGGGLIQAGGSLRLSCTASGNIFSSYHMGWFRQAPGKQREFIAYITTREITNYADSVKGRFTISRDNSKNTLYLQMNSLRAEDTAVYYCIADQSREIRRSWGQGTLVTVSS
notes: Humanized + PTM removal + primary immunogenicity removal, anti-cMet VHH-His
EC50 (human cMet on cells [11]): 0.716 nM | Maximum MFI value (human cMet on cells [11]): 73900 MFI

B16: dpzn7A12m4.m1_3 (VHH, not shown: small tags and cut ends)
VHH: EVQLVESGGGLIQAGGSLRLSCTASGNIFSSYHMGWFRQAPGKQREFIAYITTREITNYADSVKGRFTISRDNAKNTVYLQMNSLRPEDTAVYYCIADQSREIRRSWGQGTLVTVSS
notes: as for B15
EC50 (human cMet on cells [11]): 0.809 nM | Maximum MFI value (human cMet on cells [11]): 63400 MFI

B17: V-n10A1 anti-EGFR VHH-His (VHH, not shown: small tags and cut ends)
VHH: QVQLVESGGGLVQAGGSLRLSCAASGRTGSLHAMGWFRQAPGKERERVATLNLSDGSAVTADSVKGRFTISTDNTKNSVYLQMNSLKPEDTAVYYCTASRSPSGIRYYKPDYWGQGTQVTVSS
notes: Monovalent parent VHH
Maximum MFI value (human EGFR on cells [5]): 2760 MFI | Kd [2]: 37.4 nM | koff [2]: 0.0258 s⁻¹ | kon [2]: 691000 M⁻¹ s⁻¹ | Kd [3]: 17.2 nM | koff [3]: 0.01 s⁻¹ | kon [3]: 581000 M⁻¹ s⁻¹ | Maximum MFI value (human EGFR on cells [4]): 5830 MFI | Maximum MFI value (human EGFR on cells [4]; record 2): 5160 MFI

B18: Reference benchmark antibody ABT-700 (antibody, V domains shown)
VH: QVQLVQSGAEVKKPGASVKVSCKASGYIFTAYTMHWVRQAPGQGLEWMGWIKPNNGLANYAQKFQGRVTMTRDTSISTAYMELSRLRSDDTAVYYCARSEITTEFDYWGQGTLVTVSS
VL: DIVMTQSPDSLAVSLGERATINCKSSESVDSYANSFLHWYQQKPGQPPKLLIYRASTRESGVPDRFSGSGSGTDFTLTISSLQAEDVAVYYCQQSKEDPLTFGGGTKVEIKR
Kd [12]: 0.584 nM | koff [12]: 7.14e-05 s⁻¹ | kon [12]: 122000 M⁻¹ s⁻¹ | Kd (Human cMet antigen [13]): 0.681 nM | koff (Human cMet antigen [13]): 7.38e-05 s⁻¹ | kon (Human cMet antigen [13]): 108000 M⁻¹ s⁻¹

B19: 7A12-M1 (VHH, not shown: small tags and cut ends)
VHH: EVQLVESGGGLVQPGGSLRLSCAASGNIFSSNHMGWVRQAPGKGLEWVAYITTREITNYADSVKGRFTISRDNSKNTVYLQMNSLRAEDTAVYYCIADQSREIRRSWGQGTLVTVSS
notes: Humanized anti-cMet VHH-His
EC50 (human cMet on cells [10]): 88.1 nM | Maximum MFI value (human cMet on cells [10]): 56600 MFI
